Data reported in PMC9418156.

Columns and labels:
[1] = co-transfection with HA-LAT1, brefeldin washout, confocal; settings: glycan lost; control: wild type
[2] = cycloheximide chase, anti-FLAG blot; settings: glycan lost; control: wild type
[3] = brefeldin A washout, confocal time course; settings: glycan lost; control: wild type
[4] = cell surface biotinylation, anti-FLAG blot; settings: glycan lost; control: wild type
[5] = surface biotinylation, anti-LAT1 blot; settings: glycan lost; control: wild type
[6] = confocal, surface anti-CD98 vs anti-FLAG, HEK293; settings: glycan lost; control: wild type
[7] = tunicamycin then surface biotinylation (Fig. S1); settings: glycan lost; control: vehicle (DMSO)

Row | Protein | localisation_or_trafficking [6] | other results
1 | CD98 (SLC3A2, 4F2hc): Qm (protein) parent chain: MELQPPEASIAVVSIPRQLPGSHSEAGVQGLSAGDDSELGSHCVAQTGLELLASGDPLPSASQNAEMIETGSDCVTQAGLQLLASSDPPALASKNAEVTGTMSQDTEVDMKEVELNELEPEKQPMNAASGAAMSLAGAEKNGLVKIKVAEDEAEAAAAAKFTGLSKEELLKVAGSPGWVRTRWALLLLFWLGWLGMLAGAVVIIVRAPRCRELPAQKWWHTGALYRIGDLQAFQGHGAGNLAGLKGRLDYLSSLKVKGLVLGPIHKNQKDDVAQTDLLQIDPNFGSKEDFDSLLQSAKKKSIRVILDLTPNYRGENSWFSTQVDTVATKVKDALEFWLQAGVDGFQVRDIENLKDASSFLAEWQNITKGFSEDRLLIAGTNSSDLQQILSLLESNKDLLLTSSYLSDSGSTGEHTKSLVTQYLNATGNRWCSWSLSQARLLTSFLPAQLLRLYQLMLFTLPGTPVFSYGDEIGLDAAALPGQPMEAPVMLWDESSFPDIPGAVSANMTVKGQSEDPGSLLSLFRRLSDQRSKERSLLHGDFHAFSAGPGLFSYIRHWDQNERFLVVLNFGDVGLSAGLQASDLPASASLPAKADLLLSTQPGREEGSPLELERLKLEPHEGLLLRFPYAA |  | other: routing of partner LAT1 to plasma membrane [1]: decreases; degradation_or_half_life, other: percent of initial protein after 6 h [2]: decreases, <20 vs >50; localisation_or_trafficking [3]: decreases; localisation_or_trafficking [4]: decreases; other: routing of partner LAT1 to plasma membrane [5]: abolishes
2 | CD98 (SLC3A2, 4F2hc): N365Q (protein) parent chain: MELQPPEASIAVVSIPRQLPGSHSEAGVQGLSAGDDSELGSHCVAQTGLELLASGDPLPSASQNAEMIETGSDCVTQAGLQLLASSDPPALASKNAEVTGTMSQDTEVDMKEVELNELEPEKQPMNAASGAAMSLAGAEKNGLVKIKVAEDEAEAAAAAKFTGLSKEELLKVAGSPGWVRTRWALLLLFWLGWLGMLAGAVVIIVRAPRCRELPAQKWWHTGALYRIGDLQAFQGHGAGNLAGLKGRLDYLSSLKVKGLVLGPIHKNQKDDVAQTDLLQIDPNFGSKEDFDSLLQSAKKKSIRVILDLTPNYRGENSWFSTQVDTVATKVKDALEFWLQAGVDGFQVRDIENLKDASSFLAEWQNITKGFSEDRLLIAGTNSSDLQQILSLLESNKDLLLTSSYLSDSGSTGEHTKSLVTQYLNATGNRWCSWSLSQARLLTSFLPAQLLRLYQLMLFTLPGTPVFSYGDEIGLDAAALPGQPMEAPVMLWDESSFPDIPGAVSANMTVKGQSEDPGSLLSLFRRLSDQRSKERSLLHGDFHAFSAGPGLFSYIRHWDQNERFLVVLNFGDVGLSAGLQASDLPASASLPAKADLLLSTQPGREEGSPLELERLKLEPHEGLLLRFPYAA | no change | 
3 | CD98 (SLC3A2, 4F2hc): N381Q (protein) parent chain: MELQPPEASIAVVSIPRQLPGSHSEAGVQGLSAGDDSELGSHCVAQTGLELLASGDPLPSASQNAEMIETGSDCVTQAGLQLLASSDPPALASKNAEVTGTMSQDTEVDMKEVELNELEPEKQPMNAASGAAMSLAGAEKNGLVKIKVAEDEAEAAAAAKFTGLSKEELLKVAGSPGWVRTRWALLLLFWLGWLGMLAGAVVIIVRAPRCRELPAQKWWHTGALYRIGDLQAFQGHGAGNLAGLKGRLDYLSSLKVKGLVLGPIHKNQKDDVAQTDLLQIDPNFGSKEDFDSLLQSAKKKSIRVILDLTPNYRGENSWFSTQVDTVATKVKDALEFWLQAGVDGFQVRDIENLKDASSFLAEWQNITKGFSEDRLLIAGTNSSDLQQILSLLESNKDLLLTSSYLSDSGSTGEHTKSLVTQYLNATGNRWCSWSLSQARLLTSFLPAQLLRLYQLMLFTLPGTPVFSYGDEIGLDAAALPGQPMEAPVMLWDESSFPDIPGAVSANMTVKGQSEDPGSLLSLFRRLSDQRSKERSLLHGDFHAFSAGPGLFSYIRHWDQNERFLVVLNFGDVGLSAGLQASDLPASASLPAKADLLLSTQPGREEGSPLELERLKLEPHEGLLLRFPYAA | no change | 
4 | CD98 (SLC3A2, 4F2hc): N424Q (protein) parent chain: MELQPPEASIAVVSIPRQLPGSHSEAGVQGLSAGDDSELGSHCVAQTGLELLASGDPLPSASQNAEMIETGSDCVTQAGLQLLASSDPPALASKNAEVTGTMSQDTEVDMKEVELNELEPEKQPMNAASGAAMSLAGAEKNGLVKIKVAEDEAEAAAAAKFTGLSKEELLKVAGSPGWVRTRWALLLLFWLGWLGMLAGAVVIIVRAPRCRELPAQKWWHTGALYRIGDLQAFQGHGAGNLAGLKGRLDYLSSLKVKGLVLGPIHKNQKDDVAQTDLLQIDPNFGSKEDFDSLLQSAKKKSIRVILDLTPNYRGENSWFSTQVDTVATKVKDALEFWLQAGVDGFQVRDIENLKDASSFLAEWQNITKGFSEDRLLIAGTNSSDLQQILSLLESNKDLLLTSSYLSDSGSTGEHTKSLVTQYLNATGNRWCSWSLSQARLLTSFLPAQLLRLYQLMLFTLPGTPVFSYGDEIGLDAAALPGQPMEAPVMLWDESSFPDIPGAVSANMTVKGQSEDPGSLLSLFRRLSDQRSKERSLLHGDFHAFSAGPGLFSYIRHWDQNERFLVVLNFGDVGLSAGLQASDLPASASLPAKADLLLSTQPGREEGSPLELERLKLEPHEGLLLRFPYAA | no change | 
5 | CD98 (SLC3A2, 4F2hc): N506Q (protein) parent chain: MELQPPEASIAVVSIPRQLPGSHSEAGVQGLSAGDDSELGSHCVAQTGLELLASGDPLPSASQNAEMIETGSDCVTQAGLQLLASSDPPALASKNAEVTGTMSQDTEVDMKEVELNELEPEKQPMNAASGAAMSLAGAEKNGLVKIKVAEDEAEAAAAAKFTGLSKEELLKVAGSPGWVRTRWALLLLFWLGWLGMLAGAVVIIVRAPRCRELPAQKWWHTGALYRIGDLQAFQGHGAGNLAGLKGRLDYLSSLKVKGLVLGPIHKNQKDDVAQTDLLQIDPNFGSKEDFDSLLQSAKKKSIRVILDLTPNYRGENSWFSTQVDTVATKVKDALEFWLQAGVDGFQVRDIENLKDASSFLAEWQNITKGFSEDRLLIAGTNSSDLQQILSLLESNKDLLLTSSYLSDSGSTGEHTKSLVTQYLNATGNRWCSWSLSQARLLTSFLPAQLLRLYQLMLFTLPGTPVFSYGDEIGLDAAALPGQPMEAPVMLWDESSFPDIPGAVSANMTVKGQSEDPGSLLSLFRRLSDQRSKERSLLHGDFHAFSAGPGLFSYIRHWDQNERFLVVLNFGDVGLSAGLQASDLPASASLPAKADLLLSTQPGREEGSPLELERLKLEPHEGLLLRFPYAA | no change | 
6 | CD98 (SLC3A2, 4F2hc): Dm (N381/424Q) (protein) parent chain: MELQPPEASIAVVSIPRQLPGSHSEAGVQGLSAGDDSELGSHCVAQTGLELLASGDPLPSASQNAEMIETGSDCVTQAGLQLLASSDPPALASKNAEVTGTMSQDTEVDMKEVELNELEPEKQPMNAASGAAMSLAGAEKNGLVKIKVAEDEAEAAAAAKFTGLSKEELLKVAGSPGWVRTRWALLLLFWLGWLGMLAGAVVIIVRAPRCRELPAQKWWHTGALYRIGDLQAFQGHGAGNLAGLKGRLDYLSSLKVKGLVLGPIHKNQKDDVAQTDLLQIDPNFGSKEDFDSLLQSAKKKSIRVILDLTPNYRGENSWFSTQVDTVATKVKDALEFWLQAGVDGFQVRDIENLKDASSFLAEWQNITKGFSEDRLLIAGTNSSDLQQILSLLESNKDLLLTSSYLSDSGSTGEHTKSLVTQYLNATGNRWCSWSLSQARLLTSFLPAQLLRLYQLMLFTLPGTPVFSYGDEIGLDAAALPGQPMEAPVMLWDESSFPDIPGAVSANMTVKGQSEDPGSLLSLFRRLSDQRSKERSLLHGDFHAFSAGPGLFSYIRHWDQNERFLVVLNFGDVGLSAGLQASDLPASASLPAKADLLLSTQPGREEGSPLELERLKLEPHEGLLLRFPYAA | changes | 
7 | CD98 (SLC3A2, 4F2hc): Tm (N365/381/424Q) (protein) parent chain: MELQPPEASIAVVSIPRQLPGSHSEAGVQGLSAGDDSELGSHCVAQTGLELLASGDPLPSASQNAEMIETGSDCVTQAGLQLLASSDPPALASKNAEVTGTMSQDTEVDMKEVELNELEPEKQPMNAASGAAMSLAGAEKNGLVKIKVAEDEAEAAAAAKFTGLSKEELLKVAGSPGWVRTRWALLLLFWLGWLGMLAGAVVIIVRAPRCRELPAQKWWHTGALYRIGDLQAFQGHGAGNLAGLKGRLDYLSSLKVKGLVLGPIHKNQKDDVAQTDLLQIDPNFGSKEDFDSLLQSAKKKSIRVILDLTPNYRGENSWFSTQVDTVATKVKDALEFWLQAGVDGFQVRDIENLKDASSFLAEWQNITKGFSEDRLLIAGTNSSDLQQILSLLESNKDLLLTSSYLSDSGSTGEHTKSLVTQYLNATGNRWCSWSLSQARLLTSFLPAQLLRLYQLMLFTLPGTPVFSYGDEIGLDAAALPGQPMEAPVMLWDESSFPDIPGAVSANMTVKGQSEDPGSLLSLFRRLSDQRSKERSLLHGDFHAFSAGPGLFSYIRHWDQNERFLVVLNFGDVGLSAGLQASDLPASASLPAKADLLLSTQPGREEGSPLELERLKLEPHEGLLLRFPYAA | changes | 
8 | CD98 (SLC3A2, 4F2hc): Qm (N365/381/424/506Q) (protein) parent chain: MELQPPEASIAVVSIPRQLPGSHSEAGVQGLSAGDDSELGSHCVAQTGLELLASGDPLPSASQNAEMIETGSDCVTQAGLQLLASSDPPALASKNAEVTGTMSQDTEVDMKEVELNELEPEKQPMNAASGAAMSLAGAEKNGLVKIKVAEDEAEAAAAAKFTGLSKEELLKVAGSPGWVRTRWALLLLFWLGWLGMLAGAVVIIVRAPRCRELPAQKWWHTGALYRIGDLQAFQGHGAGNLAGLKGRLDYLSSLKVKGLVLGPIHKNQKDDVAQTDLLQIDPNFGSKEDFDSLLQSAKKKSIRVILDLTPNYRGENSWFSTQVDTVATKVKDALEFWLQAGVDGFQVRDIENLKDASSFLAEWQNITKGFSEDRLLIAGTNSSDLQQILSLLESNKDLLLTSSYLSDSGSTGEHTKSLVTQYLNATGNRWCSWSLSQARLLTSFLPAQLLRLYQLMLFTLPGTPVFSYGDEIGLDAAALPGQPMEAPVMLWDESSFPDIPGAVSANMTVKGQSEDPGSLLSLFRRLSDQRSKERSLLHGDFHAFSAGPGLFSYIRHWDQNERFLVVLNFGDVGLSAGLQASDLPASASLPAKADLLLSTQPGREEGSPLELERLKLEPHEGLLLRFPYAA | decreases | 
9 | CD98 (SLC3A2, 4F2hc): tunicamycin (protein) parent chain: MELQPPEASIAVVSIPRQLPGSHSEAGVQGLSAGDDSELGSHCVAQTGLELLASGDPLPSASQNAEMIETGSDCVTQAGLQLLASSDPPALASKNAEVTGTMSQDTEVDMKEVELNELEPEKQPMNAASGAAMSLAGAEKNGLVKIKVAEDEAEAAAAAKFTGLSKEELLKVAGSPGWVRTRWALLLLFWLGWLGMLAGAVVIIVRAPRCRELPAQKWWHTGALYRIGDLQAFQGHGAGNLAGLKGRLDYLSSLKVKGLVLGPIHKNQKDDVAQTDLLQIDPNFGSKEDFDSLLQSAKKKSIRVILDLTPNYRGENSWFSTQVDTVATKVKDALEFWLQAGVDGFQVRDIENLKDASSFLAEWQNITKGFSEDRLLIAGTNSSDLQQILSLLESNKDLLLTSSYLSDSGSTGEHTKSLVTQYLNATGNRWCSWSLSQARLLTSFLPAQLLRLYQLMLFTLPGTPVFSYGDEIGLDAAALPGQPMEAPVMLWDESSFPDIPGAVSANMTVKGQSEDPGSLLSLFRRLSDQRSKERSLLHGDFHAFSAGPGLFSYIRHWDQNERFLVVLNFGDVGLSAGLQASDLPASASLPAKADLLLSTQPGREEGSPLELERLKLEPHEGLLLRFPYAA |  | localisation_or_trafficking [7]: decreases
